Reference: article PMC6742648, “A potent broadly neutralizing human RSV antibody targets conserved site IV of the fusion glycoprotein” (Nature Communications, 2019)

What was measured:
[1] = molecular target: T1, stabilized pre-fusion RSV F glycoprotein (DS-Cav1) (Human respiratory syncytial virus A, …, stabilised); assay: cell-based or functional assay
[2] = molecular target: T1, stabilized pre-fusion RSV F …; assay: SPR; Biacore T200; D25 antibody on Protein A chip captures 50 RU DS-Cav1; RB1 Fab flowed in two-fold dilutions 0.31-20 nM, 50 ul/min; 1:1 Langmuir fit; details: both partners purified
[3] = molecular target: T2, post-fusion RSV F glycoprotein (F∆FP) (Human respiratory syncytial virus A, …, stabilised); assay: SPR; Biacore T200; Synagis antibody on Protein A chip captures 50 RU post-fusion F; RB1 Fab flowed in two-fold dilutions 200-3.12 nM, 40 s dissociation; 1:1 Langmuir fit; details: both partners purified
T2 construct: RSV fusion (F) glycoprotein, soluble post-fusion form F∆FP; post-fusion F structure PDB 3RRR; also called post-fusion F protein; RSV F post-Fusion; source: Expi293F, transfected, purified from culture supernatant (Ni-Sepharose, Strep-Tactin, thrombin digestion, Superdex 200)

B1: RB1, fully human IgG1 monoclonal antibody (antibody, V domains shown)
VH: EVQLVESGGGLVRPGRSLRLSCTVSGFSFDDSAMSWVRQAPGKGLEWISFIKSKTYGGTKEYAASVKGRFTISRDDSKNIAYLQMNSLKTEDTAVYYCTRGAPYGGNSDYYYGLDVWGQGTTVTVSS
VL: DIQMTQSPSSLSASVGDRVTITCRTSQDVRGALAWYQQKPGKAPKLLIFDASSLETGVPSRFSGSGSGTVFTLTISSLQPEDFAAYYCQQFLDFPFTFGQGTRLEIK
microneutralization of RSV A (Long) on HEp-2 cells, IC50 (F on the virus, strain Long) [1]: 2.9 ng/mL | microneutralization of RSV B (Washington) on HEp-2 cells, IC50 (F on the virus, subtype B strain) [1]: 1.7 ng/mL

B2: RB1 fragment antigen-binding (Fab) (Fab, V domains shown)
VH: EVQLVESGGGLVRPGRSLRLSCTVSGFSFDDSAMSWVRQAPGKGLEWISFIKSKTYGGTKEYAASVKGRFTISRDDSKNIAYLQMNSLKTEDTAVYYCTRGAPYGGNSDYYYGLDVWGQGTTVTVSS
VL: DIQMTQSPSSLSASVGDRVTITCRTSQDVRGALAWYQQKPGKAPKLLIFDASSLETGVPSRFSGSGSGTVFTLTISSLQPEDFAAYYCQQFLDFPFTFGQGTRLEIK
notes: Fab heavy chain of RB1 (VH as the heavy chain of m1, plus CH1 of human IgG1 up to the cleavage site); light chain of RB1, as the light chain of m1; The preparation of the Fab is told for the crystallisation; also called RB1 Fab; monovalent RB1 Fab; source: RB1 mAb (CHO-3E7, Protein A purified) cleaved into monovalent Fab with the Fab Preparation Kit (Pierce)
Kd [2]: 0.022 nM | koff [2]: 0.000164 s⁻¹ | kon [2]: 7.35e+06 M⁻¹ s⁻¹ | Kd [3]: 135 nM | koff [3]: 0.15 s⁻¹ | kon [3]: 1.12e+06 M⁻¹ s⁻¹
